# Experimental data published in US20200149021, “SYSTEM AND METHOD FOR GENOME EDITING” (INSTITUTE OF ZOOLOGY, CHINESE ACADEMY OF SCIENCES, published 2020).
# T1: PxCpf1 (Pseudobutyrivibrio xylanivorans)
# T1 chain: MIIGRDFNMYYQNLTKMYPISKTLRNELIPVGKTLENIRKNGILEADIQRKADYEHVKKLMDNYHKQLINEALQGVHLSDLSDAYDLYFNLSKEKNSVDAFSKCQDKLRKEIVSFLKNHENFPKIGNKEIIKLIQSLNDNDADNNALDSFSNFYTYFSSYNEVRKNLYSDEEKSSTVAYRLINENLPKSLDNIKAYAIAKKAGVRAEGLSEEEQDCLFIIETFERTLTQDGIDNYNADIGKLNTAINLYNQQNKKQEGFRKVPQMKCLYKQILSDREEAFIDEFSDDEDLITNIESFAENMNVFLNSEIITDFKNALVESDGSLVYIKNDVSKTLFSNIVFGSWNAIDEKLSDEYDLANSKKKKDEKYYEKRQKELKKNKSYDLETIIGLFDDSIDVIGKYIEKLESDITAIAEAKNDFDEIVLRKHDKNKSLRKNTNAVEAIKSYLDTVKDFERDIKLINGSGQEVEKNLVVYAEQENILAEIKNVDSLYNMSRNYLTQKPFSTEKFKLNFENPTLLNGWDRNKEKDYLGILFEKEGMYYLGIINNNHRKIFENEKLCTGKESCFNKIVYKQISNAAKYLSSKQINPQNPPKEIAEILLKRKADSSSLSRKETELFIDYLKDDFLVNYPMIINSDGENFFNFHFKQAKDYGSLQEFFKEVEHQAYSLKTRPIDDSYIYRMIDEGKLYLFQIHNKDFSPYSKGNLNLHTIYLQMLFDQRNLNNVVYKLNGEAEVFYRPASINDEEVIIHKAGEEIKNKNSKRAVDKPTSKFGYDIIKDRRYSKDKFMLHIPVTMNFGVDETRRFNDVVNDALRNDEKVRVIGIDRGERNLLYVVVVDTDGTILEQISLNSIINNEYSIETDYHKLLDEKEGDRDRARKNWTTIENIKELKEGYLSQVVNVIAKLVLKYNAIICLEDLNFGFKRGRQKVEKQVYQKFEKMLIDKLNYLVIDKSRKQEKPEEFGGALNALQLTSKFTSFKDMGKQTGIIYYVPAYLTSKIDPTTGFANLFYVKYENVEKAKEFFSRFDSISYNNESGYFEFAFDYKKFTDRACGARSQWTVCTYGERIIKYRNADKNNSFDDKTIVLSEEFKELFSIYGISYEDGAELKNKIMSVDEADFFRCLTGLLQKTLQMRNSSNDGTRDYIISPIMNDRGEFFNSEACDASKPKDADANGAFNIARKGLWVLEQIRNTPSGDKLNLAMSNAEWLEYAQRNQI
# T2: PrCpf1 (Pseudobutyrivibrio ruminis)
# T2 chain: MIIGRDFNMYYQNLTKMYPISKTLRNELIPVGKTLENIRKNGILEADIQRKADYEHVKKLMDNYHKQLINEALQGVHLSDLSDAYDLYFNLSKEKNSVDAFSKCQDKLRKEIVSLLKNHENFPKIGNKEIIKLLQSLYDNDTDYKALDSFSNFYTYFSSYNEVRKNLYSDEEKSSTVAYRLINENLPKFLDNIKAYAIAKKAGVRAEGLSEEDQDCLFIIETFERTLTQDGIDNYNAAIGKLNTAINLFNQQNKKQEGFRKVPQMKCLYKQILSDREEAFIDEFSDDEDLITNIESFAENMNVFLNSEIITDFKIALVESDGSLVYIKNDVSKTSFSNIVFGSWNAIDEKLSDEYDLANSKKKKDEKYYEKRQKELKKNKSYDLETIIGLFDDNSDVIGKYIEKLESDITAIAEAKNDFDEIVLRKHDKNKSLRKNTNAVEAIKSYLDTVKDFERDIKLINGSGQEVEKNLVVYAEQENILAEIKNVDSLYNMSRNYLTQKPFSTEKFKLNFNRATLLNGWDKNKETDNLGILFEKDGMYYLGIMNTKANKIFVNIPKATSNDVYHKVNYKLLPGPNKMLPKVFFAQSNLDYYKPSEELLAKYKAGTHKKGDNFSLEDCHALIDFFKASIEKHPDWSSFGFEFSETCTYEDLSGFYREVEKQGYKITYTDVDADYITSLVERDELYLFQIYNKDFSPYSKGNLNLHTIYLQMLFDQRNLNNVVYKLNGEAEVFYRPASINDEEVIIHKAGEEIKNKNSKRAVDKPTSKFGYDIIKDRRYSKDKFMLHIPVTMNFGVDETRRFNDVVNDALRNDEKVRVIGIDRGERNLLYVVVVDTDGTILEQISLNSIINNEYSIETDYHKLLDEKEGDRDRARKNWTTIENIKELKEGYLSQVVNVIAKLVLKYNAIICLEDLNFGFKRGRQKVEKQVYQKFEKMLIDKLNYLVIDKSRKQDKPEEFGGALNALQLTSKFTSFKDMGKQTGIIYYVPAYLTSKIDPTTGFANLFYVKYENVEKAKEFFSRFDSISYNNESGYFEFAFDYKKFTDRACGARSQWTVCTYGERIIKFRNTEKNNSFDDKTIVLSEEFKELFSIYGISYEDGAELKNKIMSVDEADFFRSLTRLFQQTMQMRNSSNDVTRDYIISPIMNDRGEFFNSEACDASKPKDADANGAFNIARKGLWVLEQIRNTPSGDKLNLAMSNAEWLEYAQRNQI
# B1: crRNA31 MeCP2 site 4 ; Mouse MeCP2 site 4 (ssRNA ; dsDNA)
# RNA: AUUUCUACUAUGGUAGAUGUGUCCAACCUUCAGGCAAGGUG
# DNA 1: TTTCGTGTCCAACCTTCAGGCAAGGTG
# DNA 2: CACCTTGCCTGAAGGTTGGACACGAAA
# Legend:
# PxCpf1 = target: T1, PxCpf1; assay: cell_activity; PAM TTTC; (T)TTN; T7EI; conditions: tags: HA (2A-eGFP vector)
# Method: (§1) GFP-positive cells were sorted by FACS, lysed with Buffer L+ 1/100V Protease K (Biotool) at 55° C. for 30 min, inactivated at 95° C. for 5 min, and directly used for PCR detection. Appropriate primers were designed near the Cpf1 targeting site, and the amplified product was purified using DNA Clean & Concentrator™-5 kit (ZYMO Research). 200 ng of purified PCR product was added into 1 uL of NEBuffer2 (NEB) and diluted to 10 uL with ddH₂O. Then, heterodimers were formed by re-annealing according to the previously reported method (Li, W., et al., Simultaneous generation and germline transmission of multiple gene mutations in rat using CRISPR-Cas systems. Nat Biotechnol, 2013. 31(8): p. 684-6). The reannealed product was added with 0.3 uL of T7EI endnucelease and 1/10 V NEBuffer2 (NEB), and digested at 37° C. for 1 h 30 min. Genotype analysis was performed by 3% TAE-Gel electrophoresis. Indels were calculated according to the method reported in the previous article (Cong, L., et al., Multiplex genome engineering using CRISPR/Cas systems. Science, 2013. 339(6121): p. 819-23).
# (§2) The cells were transfected with Cpf1, crRNA31, and crRNA2 plasmids, and it was confirmed by PCR and T7EI analysis that crRNA31 can increase the editing efficiency of five Cpf1s of ArCpf1, BsCpf1, HkCpf1, PrCpf1, and PxCpf1 at the site MeCP2-4 by two folds (FIG. 13B).
# PrCpf1 = target: T2, PrCpf1; assay: cell_activity; PAM TTTC; (T)TTN; T7EI; conditions: tags: HA (2A-eGFP vector)
# Method: as §1, §2
binder,measurement,setting,value
B1,editing efficiency,PxCpf1,~2 fold vs crRNA2
same,editing efficiency,PrCpf1,~2 fold vs crRNA2
